Measured values published in paper PMC6941876, “White Spot Syndrome Virus Establishes a Novel IE1/JNK/c-Jun Positive Feedback Loop to Drive Replication”.

T1: rLvc-Jun (Litopenaeus vannamei, UniProt A0A0A7W5M9 1-293)
T1 chain: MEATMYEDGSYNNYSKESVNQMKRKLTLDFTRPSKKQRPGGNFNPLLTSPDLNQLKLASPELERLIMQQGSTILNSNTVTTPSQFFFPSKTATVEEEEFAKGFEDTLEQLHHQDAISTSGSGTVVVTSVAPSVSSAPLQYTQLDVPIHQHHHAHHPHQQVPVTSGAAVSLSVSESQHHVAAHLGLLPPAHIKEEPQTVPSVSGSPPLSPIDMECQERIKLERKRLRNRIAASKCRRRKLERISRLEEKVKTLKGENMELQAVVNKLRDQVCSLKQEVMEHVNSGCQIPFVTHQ


Key:
rLvc-Jun [1] = biological target: T1, rLvc-Jun; assay: EMSA; EMSA with biotin-labeled probes; buffer, salt, pH and temperature not in the material; settings: protein: recombinant, tags: GST tag removed with enterokinase, chain copies: 0, blunt
rLvc-Jun [2] = biological target: T1, rLvc-Jun; assay: competition; 10-, 50-, 100-fold excess over biotin IE1-AP-1-1; EMSA with biotin-labeled probes; buffer, salt, pH and temperature not in the material; settings: protein: recombinant; tags: GST tag removed with enterokinase; chain copies: 0; label: none; blunt

| Binder | binding result (rLvc-Jun [1]; label: biotin) | binding result (rLvc-Jun [1]; label: biotin (probe)) | also measured |
| --- | --- | --- | --- |
| 056-AP-1 probe (dsDNA) DNA 1: GTACCAGATGTGAGTCAAACCGTTTCTGG DNA 2: CCAGAAACGGTTTGACTCACATCTGGTAC | binds | – | – |
| Mut-unBio-IE1-AP-1-1 (dsDNA) DNA 1: GAAAATCGCTGTTCCCATCCTGTTAAGGAATT DNA 2: AATTCCTTAACAGGATGGGAACAGCGATTTTC | – | – | binding result (rLvc-Jun [2]): no binding |
| 249-AP-1 probe (dsDNA) DNA 1: TAGGAATTTCGCTGACGTCAATAAACTGGTTT DNA 2: AAACCAGTTTATTGACGTCAGCGAAATTCCTA | binds | – | – |
| 403-AP-1 probe (dsDNA) DNA 1: ATTTCCAAGAATTTTGCTGACGTCAATGGACC DNA 2: GGTCCATTGACGTCAGCAAAATTCTTGGAAAT | binds | – | – |
| IE1-AP-1-2 probe (dsDNA) DNA 1: GGAATTTCCTTGTTACTCATTTATTCCTAGA DNA 2: TCTAGGAATAAATGAGTAACAAGGAAATTCC | – | binds | – |
| IE1-AP-1-1 probe (dsDNA) DNA 1: GAAAATGGCTGTTTGAATCATGTTAAGGAATT DNA 2: AATTCCTTAACATGATTCAAACAGCCATTTTC | – | binds | – |
